Assay results taken from PMC6919569.

B1: Mutant 1 (NF-kB site deleted) (dsDNA)
DNA 1: CTGTGCTTTAGCTCC
DNA 2: GGAGCTAAAGCACAG
B2: Mutant 2 (… to CCCTTAAGGG) (dsDNA)
DNA 1: CTGTGCTCCCTTAAGGGTTAGCTCC
DNA 2: GGAGCTAACCCTTAAGGGAGCACAG
B3: PLCB2 -1652/-1628 WT NF-kB probe (dsDNA)
DNA 1: CTGTGCTGGGAATTCCCTTAGCTCC
DNA 2: GGAGCTAAGGGAATTCCCAGCACAG

Legend:
[1] = target: T1, NF-kB p65 (RelA), recombinant (Homo sapiens, UniProt Q04206 1-551); experiment: competition EMSA
[2] = target: T1, NF-kB p65 (RelA), recombinant; experiment: EMSA, supershift

T1 sequence (Q04206 whole entry): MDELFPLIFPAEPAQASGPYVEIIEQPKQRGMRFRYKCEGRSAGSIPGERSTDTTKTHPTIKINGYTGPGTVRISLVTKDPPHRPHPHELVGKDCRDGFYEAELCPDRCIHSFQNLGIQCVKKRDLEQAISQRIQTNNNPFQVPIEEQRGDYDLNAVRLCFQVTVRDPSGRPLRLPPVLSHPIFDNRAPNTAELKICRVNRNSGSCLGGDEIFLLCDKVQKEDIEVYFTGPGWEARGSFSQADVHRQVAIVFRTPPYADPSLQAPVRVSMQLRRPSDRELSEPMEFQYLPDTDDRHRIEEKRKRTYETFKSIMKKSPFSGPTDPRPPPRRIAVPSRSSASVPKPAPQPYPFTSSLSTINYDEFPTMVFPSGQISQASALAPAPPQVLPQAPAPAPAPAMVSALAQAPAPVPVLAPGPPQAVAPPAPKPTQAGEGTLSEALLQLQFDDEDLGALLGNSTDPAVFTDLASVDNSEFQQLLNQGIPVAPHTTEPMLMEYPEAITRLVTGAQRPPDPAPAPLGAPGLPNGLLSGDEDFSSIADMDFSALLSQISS

Binder | binding result [1] | binding result [2]
B1 | no binding | –
B2 | no binding | –
B3 | – | binds
